# Source: US20240024505
# B1: PAPPA2 from conditioned media (protein)
# chain: PPEESNQNGGEGSYREAETFNSQVGLPILYFSGRRERLLLRPEVLAEIPREAFTVEAWVKPEGGQNNPAIIAGVFDNCSHTVSDKGWALGIRSGKDKGKRDARFFFSLCTDRVKKATILISHSRYQPGTWTHVAATYDGRHMALYVDGTQVASSLDQSGPLNSPFMASCRSLLLGGDSSEDGHYFRGHLGTLVFWSTALPQSHFQHSSQHSSGEEEATDLVLTASFEPVNTEWVPFRDEKYPRLEVLQGFEPEPEILSPLQPPLCGQTVCDNVELISQYNGYWPLRGEKVIRYQVVNICDDEGLNPIVSEEQIRLQHEALNEAFSRYNISWQLSVHQVHNSTLRHRVVLVNCEPSKIGNDHCDPECEHPLTGYDGGDCRLQGRCYSWNRRDGLCHVECNNMLNDFDDGDCCDPQVADVRKTCFDPDSPKRAYMSVKELKEALQLNSTHFLNIYFASSVREDLAGAATWPWDKDAVTHLGGIVLSPAYYGMPGHTDTMIHEVGHVLGLYHVFKGVSERESCNDPCKETVPSMETGDLCADTAPTPKSELCREPEPTSDTCGFTRFPGAPFTNYMSYTDDNCTDNFTPNQVARMHCYLDLVYQQWTESRKPTPIPIPPMVIGQTNKSLTIHWLPPISGVVYDRASGSLCGACTEDGTFRQYVHTASSRRVCDSSGYWTPEEAVGPPDVDQPCEPSLQAWSPEVHLYHMNMTVPCPTEGCSLELLFQHPVQADTLTLWVTSFFMESSQVLFDTEILLENKESVHLGPLDTFCDIPLTIKLHVDGKVSGVKVYTFDERIEIDAALLTSQPHSPLCSGCRPVRYQVLRDPPFASGLPVVVTHSHRKFTDVEVTPGQMYQYQVLAEAGGELGEASPPLNHIHGAPYCGDGKVSERLGEECDDGDLVSGDGCSKVCELEEGFNCVGEPSLCYMYEGDGICEPFERKTSIVDCGIYTPKGYLDQWATRAYSSHEDKKKCPVSLVTGEPHSLICTSYHPDLPNHRPLTGWFPCVASENETQDDRSEQPEGSLKKEDEVWLKVCFNRPGEARAIFIFLTTDGLVPGEHQQPTVTLYLTDVRGSNHSLGTYGLSCQHNPLIINVTHHQNVLFHHTTSVLLNFSSPRVGISAVALRTSSRIGLSAPSNCISEDEGQNHQGQSCIHRPCGKQDSCPSLLLDHADVVNCTSIGPGLMKCAITCQRGFALQASSGQYIRPMQKEILLTCSSGHWDQNVSCLPVDCGVPDPSLVNYANFSCSEGTKFLKRCSISCVPPAKLQGLSPWLTCLEDGLWSLPEVYCKLECDAPPIILNANLLLPHCLQDNHDVGTICKYECKPGYYVAESAEGKVRNKLLKIQCLEGGIWEQGSCIPVVCEPPPPVFEGMYECTNGFSLDSQCVLNCNQEREKLPILCTKEGLWTQEFKLCENLQGECPPPPSELNSVEYKCEQGYGIGAVCSPLCVIPPSDPVMLPENITADTLEHWMEPVKVQSIVCTGRRQWHPDPVLVHCIQSCEPFQADGWCDTINNRAYCHYDGGDCCSSTLSSKKVIPFAADCDLDECTCRDPKAEENQ
# How the values were obtained:
# [1] = biological target: endogenous IGFBP-3 in human synovial fluid, P17936
# [2] = biological target: recombinant IGFBP-3, P17936
# Chain of recombinant IGFBP-3, P17936 (P17936 28-291): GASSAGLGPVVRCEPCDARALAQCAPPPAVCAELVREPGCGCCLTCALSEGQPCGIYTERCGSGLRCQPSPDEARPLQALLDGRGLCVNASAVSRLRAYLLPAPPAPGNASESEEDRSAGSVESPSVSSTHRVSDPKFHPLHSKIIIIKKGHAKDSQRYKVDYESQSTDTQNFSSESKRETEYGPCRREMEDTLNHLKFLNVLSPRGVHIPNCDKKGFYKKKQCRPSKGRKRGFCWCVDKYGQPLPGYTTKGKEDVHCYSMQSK
# Chain of endogenous IGFBP-3 in human synovial fluid, P17936 (P17936 28-291): as above
protein,measurement,setting,value
B1,protease activity: intact IGFBP-3 in synovial fluid by ELISA,[1],Treatment of healthy or diseased human synovial fluid with conditioned media containing PAPPA2 results in a significant decrease in intact IGFBP-3
same,IGF-1 signaling (AP-1 driven bioluminescence) in the presence of IGFBP-3,[2],Treatment with PAPPA2 allows for robust IGF-1 signaling in the modeled healthy and disease-state
same,protease activity: intact IGFBP-3 by ELISA,[2],"PAPPA2 from conditioned media efficiently cleaves IGFBP-3, as measured by an ELISA for intact IGFBP-3, with and without bound IGF-1"
